# Measured values from US20250154240A1, “ANTI-HUMAN CXCL1 ANTIBODY” (CHIOME BIOSCIENCE INC., priority 2022, published 2025).
# Test system: OCUM-12 gastric cancer cell line
# Assay: Antitumor activity, treatment model with OCUM-12 orthotopic transplantation
# Type: in vivo, mouse
# Details: compared to PBS
# Procedure: OCUM-12 cells were cultured in D-MED medium (FUJIFILM Wako Pure Chemical Corporation, Japan) supplemented with 10% fetal bovine serum (hereinafter abbreviated as FBS; Sigma-Aldrich Corporation) and 1/100 volumes of a penicillin-streptomycin mixture (Nacalai Tesque, Inc., Japan). The cells to be transplanted were detached with 0.25% trypsin/0.02% EDTA (Thermo Fisher Scientific) and washed with PBS, and 4×10^5 cells per mouse were transplanted into the gastric wall of each mouse. On the day following the transplantation, the mice were randomized into groups (8 mice per group) and intraperitoneally administered with test antibodies at a dose of 400 μg/head. […] After 3 weeks had passed from the transplantation, the mice were sacrificed, and the short- and long-axis diameters of tumors formed in their gastric walls were each measured with a caliper. The tumor size was calculated according to the following: 1/2 short-axis diameter (mm)×1/2 long-axis diameter (mm)×3.14. […]
# The dose-response relationship between antibody dose and in vivo antitumor activity or CXCR2 migration inhibitory activity was evaluated in a xenograft treatment model with OCUM-12 orthotopic transplantation. […] After 4 weeks had passed from the transplantation, the mice were sacrificed and evaluated.
molecule,measurement,value
"Hu5A-5E11: humanized antibody VH1/VL1; VH SEQ ID NO: 76, VL SEQ ID NO: 78 (antibody, V domains shown) VH: QVQLVQSGAEVKKPGSSVKVSCKASGYAFSDYWMNWVRQAPGQGLEWIGQIYPGSGDTNYNAKFKGKGTITADKSTSTAYMELSSLRSEDTAVYYCARERDYDVAMDYWGQGTTVTVSS VL: DIQMTQSPSSLSASVGDRVTITCKASQDINKYIAWFQQKPGKAPKLVIHYTSILQPGVPSRFSGSGSGTDYTFTISSLQPEDIATYYCLQYDNLPWTFGGGTKVEIK",Dose significantly suppressing the tumor area,≥ 60 μg/head
